Residue numbers refer to the chain shown, from its start. *1 amine or outer side, *2 acyl side, *3 side chain or, on linkers, in order; H or OH if unused. Where no end group is shown, it is not given here. Side-chain parts run from the residue outwards. [ ]: non-standard residue; d: D form. The star is where a group is joined. αMePhe(2-F) = C[C@](N)(Cc1ccccc1F)C(=O)O; γGlu = O=C(O)[C@H](CCC(=O)[*:2])N[*:1]; C14 diacid = O=C(O)CCCCCCCCCCCCC(=O)*; αMeY = C[C@](N)(Cc1ccc(O)cc1)C(=O)O; αMeL = CC(C)C[C@](C)(N)C(=O)O; Nle = CCCC[C@H](N)C(=O)O; Orn = NCCC[C@H](N)C(=O)O; AEEA = NCCOCCOCC(=O)O; Aib = CC(C)(N)C(=O)O
Experiments:
Test in all cases: cell-based or functional assay
human GIP receptor = target: T1, human GIP receptor (human, UniProt P48546 22-466)
T1 sequence (looked up): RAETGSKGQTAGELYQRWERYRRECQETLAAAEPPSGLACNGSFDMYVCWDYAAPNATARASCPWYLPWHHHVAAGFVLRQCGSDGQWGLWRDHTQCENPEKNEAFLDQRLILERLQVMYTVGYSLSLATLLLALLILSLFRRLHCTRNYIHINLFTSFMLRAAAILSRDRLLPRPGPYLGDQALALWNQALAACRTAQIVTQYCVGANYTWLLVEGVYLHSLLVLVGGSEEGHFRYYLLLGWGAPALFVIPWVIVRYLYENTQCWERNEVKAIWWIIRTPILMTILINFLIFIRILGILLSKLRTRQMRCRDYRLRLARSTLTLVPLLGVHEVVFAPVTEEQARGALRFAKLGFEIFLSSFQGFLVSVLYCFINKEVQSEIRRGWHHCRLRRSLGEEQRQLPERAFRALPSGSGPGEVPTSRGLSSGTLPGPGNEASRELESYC

human GLP-1 receptor = human GLP-1 receptor (human, UniProt P43220 24-463)
human glucagon receptor = human glucagon receptor (human, UniProt P47871 26-477)

B1: Example 269 (peptide)
peptide: Y[Aib]EGT[αMePhe(2-F)]TSD[Nle]SI[αMeL]LD[Orn]IAQ[Aib]EFIK([AEEA-AEEA-γGlu-C14 diacid])[αMeY]LIK([AEEA-AEEA-γGlu-C14 diacid])GGPSSGAPPPS-NH2
modifications: N-terminus assumed
SMILES: CCCC[C@H](NC(=O)[C@H](CC(=O)O)NC(=O)[C@H](CO)NC(=O)[C@@H](NC(=O)[C@](C)(Cc1ccccc1F)NC(=O)[C@@H](NC(=O)CNC(=O)[C@H](CCC(=O)O)NC(=O)C(C)(C)NC(=O)[C@@H](N)Cc1ccc(O)cc1)[C@@H](C)O)[C@@H](C)O)C(=O)N[C@@H](CO)C(=O)N[C@H](C(=O)N[C@@](C)(CC(C)C)C(=O)N[C@@H](CC(C)C)C(=O)N[C@@H](CC(=O)O)C(=O)N[C@@H](CCCN)C(=O)N[C@H](C(=O)N[C@@H](C)C(=O)N[C@@H](CCC(N)=O)C(=O)NC(C)(C)C(=O)N[C@@H](CCC(=O)O)C(=O)N[C@@H](Cc1ccccc1)C(=O)N[C@H](C(=O)N[C@@H](CCCCNC(=O)COCCOCCNC(=O)COCCOCCNC(=O)CC[C@H](NC(=O)CCCCCCCCCCCCC(=O)O)C(=O)O)C(=O)N[C@@](C)(Cc1ccc(O)cc1)C(=O)N[C@@H](CC(C)C)C(=O)N[C@H](C(=O)N[C@@H](CCCCNC(=O)COCCOCCNC(=O)COCCOCCNC(=O)CC[C@H](NC(=O)CCCCCCCCCCCCC(=O)O)C(=O)O)C(=O)NCC(=O)NCC(=O)N1CCC[C@H]1C(=O)N[C@@H](CO)C(=O)N[C@@H](CO)C(=O)NCC(=O)N[C@@H](C)C(=O)N1CCC[C@H]1C(=O)N1CCC[C@H]1C(=O)N1CCC[C@H]1C(=O)N[C@@H](CO)C(N)=O)[C@@H](C)CC)[C@@H](C)CC)[C@@H](C)CC)[C@@H](C)CC
In the case of B1, the “cAMP EC50 (1.0% HSA)” value (human GIP receptor) is reported as 2.65 nM, the “cAMP EC50 (1.0% HSA)” value (human GLP-1 receptor) is reported as 46.5 nM and the “cAMP EC50 (1.0% HSA)” value (human glucagon receptor) is reported as over 9950 nM.

B2: Example 270 (peptide)
peptide: YXEGTXTSDXSIXLDXIAQXEFIKXLIKGGPSSGAPPPS
modifications: Y-Aib-EGT-αMeF(2F)-TSD-hTyr-SI-αMeL-LD-Orn-IAQ-Aib-EFIK((2-[2-(2-Amino-ethoxy)-ethoxy]-acetyl)2-(γ-Glu)-CO-(CH2)12-CO2H)-αMeY-LIK((2-[2-(2-Amino-ethoxy)-ethoxy]-acetyl)2-(γ-Glu)-CO-(CH2)12-CO2H)GGPSSGAPPPS-NH2
With B2 the “cAMP EC50 (1.0% HSA)” value (human GIP receptor) was 3.8 nM, the “cAMP Emax (1.0% HSA)” value (human GIP receptor) was 80.9% and the “cAMP EC50 (1.0% HSA)” value (human GLP-1 receptor) was 32.6 nM. For the same binder, the “cAMP EC50 (1.0% HSA)” value (human glucagon receptor) was over 9950 nM.

B3: Example 307 (peptide)
peptide: B2 peptide with X10Y, S11X
modifications: Y-Aib-EGT-αMeF(2F)-TSDY-αMeS-I-αMeL-LD-Orn-IAQ-Aib-EFIK((2-[2-(2-Amino-ethoxy)-ethoxy]-acetyl)2-(γ-Glu)-(10-(4-carboxyphenoxy)decanoyl))-αMeY-LIK((2-[2-(2-Amino-ethoxy)-ethoxy]-acetyl)2-(γ-Glu)-(10-(4-carboxyphenoxy)decanoyl))GGPSSGAPPPS-NH2
For B3, the “cAMP EC50 (1.0% HSA)” value (human GIP receptor) was 1.66 nM, the “cAMP Emax (1.0% HSA)” value (human GIP receptor) was 81.8% and the “cAMP EC50 (1.0% HSA)” value (human GLP-1 receptor) was 33 nM. For the same binder, the “cAMP EC50 (1.0% HSA)” value (human glucagon receptor) was over 9950 nM.

B4: Example 281 (peptide)
peptide: B2 peptide with I17K, E21K, K24X, K28E
modifications: Y-Aib-EGT-αMeF(2F)-TSD-2Nal-SI-αMeL-LD-Orn-K((2-[2-(2-Amino-ethoxy)-ethoxy]-acetyl)2-(γ-Glu)-(10-(4-carboxyphenoxy)decanoyl))AQ-Aib-K((2-[2-(2-Amino-ethoxy)-ethoxy]-acetyl)2-(γ-Glu)-(10-(4-carboxyphenoxy)decanoyl))FI-(D-Glu)-αMeY-LIEGGPSSGAPPPS-NH2
In the case of B4, the “cAMP EC50 (1.0% HSA)” value (human GIP receptor) is reported as 1.87 nM, the “cAMP EC50 (1.0% HSA)” value (human GLP-1 receptor) is reported as 22.4 nM and the “cAMP EC50 (1.0% HSA)” value (human glucagon receptor) is reported as over 9950 nM.

B5: Example 275 (peptide)
peptide: B2 peptide with E21K, K24X
modifications: Y-Aib-EGT-αMeF(2F)-TSD-4Pa1-SI-αMeL-LD-Orn-IAQ-Aib-K((2-[2-(2-Amino-ethoxy)-ethoxy]-acetyl)2-(γ-Glu)-(10-(4-carboxyphenoxy)decanoyl))FI-(D-Glu)-αMeY-LIK((2-[2-(2-Amino-ethoxy)-ethoxy]-acetyl)2-(γ-Glu)-(10-(4-carboxyphenoxy)decanoyl))GGPSSGAPPPS-NH2
For B5, the “cAMP EC50 (1.0% HSA)” value (human GIP receptor) was 0.926 nM, the “cAMP EC50 (1.0% HSA)” value (human GLP-1 receptor) was 33.5 nM and the “cAMP EC50 (1.0% HSA)” value (human glucagon receptor) was over 9950 nM.

B6: Example 289 (peptide)
peptide: B2 peptide with I17K, E21K, K24X, K28E
modifications: Y-Aib-EGT-αMeF(2F)-TSD-OMeY-SI-αMeL-LD-Orn-K((2-[2-(2-Amino-ethoxy)-ethoxy]-acetyl)2-(γ-Glu)-CO-(CH2)10-CH3)AQ-Aib-K((2-[2-(2-Amino-ethoxy)-ethoxy]-acetyl)2-(γ-Glu)-CO-(CH2)10-CH3)FI-(D-Glu)-αMeY-LIEGGPSSGAPPPS-NH2
B6 was tested, and the “cAMP EC50 (1.0% HSA)” value (human GIP receptor) was 3.11 nM, the “cAMP EC50 (1.0% HSA)” value (human GLP-1 receptor) was 627 nM and the “cAMP Emax (1.0% HSA)” value (human GLP-1 receptor) was 170%. For the same binder, the “cAMP EC50 (1.0% HSA)” value (human glucagon receptor) was over 9950 nM.

B7: Example 286 (peptide)
peptide: B2 peptide
modifications: Y-Aib-EGT-αMeF(2F)-TSD-4Pal-SI-αMeL-LD-Orn-IAQ-Aib-EFIK(2-[2-(2-Amino-ethoxy)-ethoxy]-acetyl)2-(γ-Glu)-(11-(4-carboxyphenoxy)undecanoyl)-αMeY-LIK((2-[2-(2-Amino-ethoxy)-ethoxy]-acetyl)2-(γ-Glu)-(11-(4-carboxyphenoxy)undecanoyl)GGPSSGAPPPS-NH2)
In the case of B7, the “cAMP EC50 (1.0% HSA)” value (human GIP receptor) is reported as 2.18 nM, the “cAMP EC50 (1.0% HSA)” value (human GLP-1 receptor) is reported as 35 nM and the “cAMP Emax (1.0% HSA)” value (human GLP-1 receptor) is reported as 90.3%. The “cAMP EC50 (1.0% HSA)” value (human glucagon receptor) was over 9950 nM.

B8: Example 280 (peptide)
peptide: B2 peptide with E21K, K24X
modifications: Y-Aib-EGT-αMeF(2F)-TSD-OMeY-SI-αMeL-LD-Orn-IAQ-Aib-K((2-[2-(2-Amino-ethoxy)-ethoxy]-acetyl)2-(γ-Glu)-(10-(4-carboxyphenoxy)decanoyl))FI-(D-Glu)-αMeY-LIK((2-[2-(2-Amino-ethoxy)-ethoxy]-acetyl)2-(γ-Glu)-(10-(4-carboxyphenoxy)decanoyl))GGPSSGAPPPS-NH2
In the case of B8, the “cAMP EC50 (1.0% HSA)” value (human GIP receptor) is reported as 4.84 nM, the “cAMP Emax (1.0% HSA)” value (human GIP receptor) is reported as 88.5% and the “cAMP EC50 (1.0% HSA)” value (human GLP-1 receptor) is reported as 49.9 nM. For the same binder, the “cAMP EC50 (1.0% HSA)” value (human glucagon receptor) was over 9950 nM.

B9: Example 290 (peptide)
peptide: B2 peptide with I17K, K24X
modifications: Y-Aib-EGT-αMeF(2F)-TSD-OMeY-SI-αMeL-LD-Orn-K((2-[2-(2-Amino-ethoxy)-ethoxy]-acetyl)2-(γ-Glu)-CO-(CH2)10-CH3)AQ-Aib-EFI-(D-Glu)-αMeY-LIK((2-[2-(2-Amino-ethoxy)-ethoxy]-acetyl)2-(γ-Glu)-CO-(CH2)10-CH3)GGPSSGAPPPS-NH2
In the case of B9, the “cAMP EC50 (1.0% HSA)” value (human GIP receptor) is reported as 0.878 nM, the “cAMP EC50 (1.0% HSA)” value (human GLP-1 receptor) is reported as 12.1 nM and the “cAMP EC50 (1.0% HSA)” value (human glucagon receptor) is reported as over 9950 nM.

B10: Example 277 (peptide)
peptide: B2 peptide with I17K, E21K, K24X, K28E
modifications: Y-Aib-EGT-αMeF(2F)-TSD-OMeY-SI-αMeL-LD-Orn-K((2-[2-(2-Amino-ethoxy)-ethoxy]-acetyl)2-(γ-Glu)-(10-(4-carboxyphenoxy)decanoyl))AQ-Aib-K((2-[2-(2-Amino-ethoxy)-ethoxy]-acetyl)2-(γ-Glu)-(10-(4-carboxyphenoxy)decanoyl))FI-(D-Glu)-αMeY-LIEGGPSSGAPPPS-NH2
With B10 the “cAMP EC50 (1.0% HSA)” value (human GIP receptor) was 0.962 nM, the “cAMP EC50 (1.0% HSA)” value (human GLP-1 receptor) was 12.2 nM and the “cAMP EC50 (1.0% HSA)” value (human glucagon receptor) was over 9950 nM.

B11: Example 274 (peptide)
peptide: B2 peptide
modifications: Y-Aib-EGT-αMeF(2F)-TSD-4Pa1-SI-αMeL-LD-Orn-IAQ-Aib-EFIK((2-[2-(2-Amino-ethoxy)-ethoxy]-acetyl)2-(γ-Glu)-(10-(4-carboxyphenoxy)decanoyl))-αMeY-LIK((2-[2-(2-Amino-ethoxy)-ethoxy]-acetyl)2-(γ-Glu)-(10-(4-carboxyphenoxy)decanoyl))GGPSSGAPPPS-NH2
In the case of B11, the “cAMP EC50 (1.0% HSA)” value (human GIP receptor) is reported as 1.16 nM, the “cAMP EC50 (1.0% HSA)” value (human GLP-1 receptor) is reported as 32.9 nM and the “cAMP EC50 (1.0% HSA)” value (human glucagon receptor) is reported as over 9950 nM.

B12: Example 284 (peptide)
peptide: B2 peptide with E21K, K24X
modifications: Y-Aib-EGT-αMeF(2F)-TSD-2Nal-SI-αMeL-LD-Orn-IAQ-Aib-K((2-[2-(2-Amino-ethoxy)-ethoxy]-acetyl)2-(γ-Glu)-(10-(4-carboxyphenoxy)decanoyl))FI-(D-Glu)-αMeY-LIK((2-[2-(2-Amino-ethoxy)-ethoxy]-acetyl)2-(γ-Glu)-(10-(4-carboxyphenoxy)decanoyl))GGPSSGAPPPS-NH2
In the case of B12, the “cAMP EC50 (1.0% HSA)” value (human GIP receptor) is reported as 8.38 nM, the “cAMP EC50 (1.0% HSA)” value (human GLP-1 receptor) is reported as 137 nM and the “cAMP EC50 (1.0% HSA)” value (human glucagon receptor) is reported as over 9950 nM.

B13: Example 303 (peptide)
peptide: B2 peptide with X10Y, S11X
modifications: Y-Aib-EGT-αMeF(2F)-TSDY-αMeS-I-αMeL-LD-Orn-IAQ-Aib-EFIK((2-[2-(2-Amino-ethoxy)-ethoxy]-acetyl)2-(γ-Glu)-CO-(CH2)12-CO2H)-αMeY-LIK((2-[2-(2-Amino-ethoxy)-ethoxy]-acetyl)2-(γ-Glu)-CO-(CH2)12-CO2H)GGPSSGAPPPS-NH2
In the case of B13, the “cAMP EC50 (1.0% HSA)” value (human GIP receptor) is reported as 2 nM, the “cAMP Emax (1.0% HSA)” value (human GIP receptor) is reported as 89.8% and the “cAMP EC50 (1.0% HSA)” value (human GLP-1 receptor) is reported as 50.4 nM. For the same binder, the “cAMP EC50 (1.0% HSA)” value (human glucagon receptor) was over 9950 nM.

Source: US20230265151A1, “GIP/GLP1 CO-AGONIST COMPOUNDS” (priority 2020, published 2023)
